From paper PMC4990988, “Defective recognition of LC3B by mutant SQSTM1/p62 implicates impairment of autophagy as a pathogenic mechanism in ALS-FTLD” (Autophagy, 2016) come the findings set out here.

The target in this experiment is LC3B (microtubule-associated protein 1 light chain 3 β) (human, UniProt Q9GZQ8 1-120). Nature of the experiment: ITC; LIR peptide stock (350 µM) injected into LC3B in the cell, 298 K, 25 mM phosphate buffer, 150 mM NaCl, pH 7.5; one-site binding model. Conditions: both partners purified. Background: Isothermal titration calorimetry measures the heat released or taken up as one component is titrated into another.

B1: WT LIR peptide (residues 332 to 351 of human SQSTM1) (peptide)
peptide: SGGDDDWTHLSSKEVDPSTG
notes: source: synthetic peptide (PeptideSynthetics, purity > 98%)
Broadly, the Kd is the equilibrium constant for the complex coming apart. Low values mean higher affinity, high ones lower affinity. For the molecule B1, the Kd came to 3.2 ± 1.1 µM.

B2: LIR (L341V) peptide (residues 332 to 351 of human SQSTM1 with L341V) (peptide)
peptide: SGGDDDWTHVSSKEVDPSTG
notes: SQSTM1/p62, human, residues 332 to 351 with the ALS-associated L341V mutation; also called L341V-mutant LIR; mutant LIR; source: synthetic peptide (PeptideSynthetics, purity > 98%)
Take B2: the Kd is 10.9 ± 1.1 µM.
